Substrate: NCCc1c[nH]c2ccc(O)cc12
Assay: HPLC with fluorescence detection of N-acetylserotonin; Lineweaver-Burk plot
Type: biochemical, Chlamydomonas reinhardtii
Settings: acetyl-CoA as co-substrate (0.5 mM in the standard assay), 100 mM potassium phosphate, standard assay pH 8.8, 45 °C, 30 min, serotonin 50 to 2000 μM

B1: CrAANAT (Chlamydomonas reinhardtii) (protein)
chain: MAEESLDASVQPLGSTVFFGPVQPEMLDRIHELEAASYPEDEAATYEKLKFRIENASNVFLVALSAEGDGEPKVVGFVCGTQTRASKLTHESMSTHDADGALLCIHSVVVDAALRRRGLATRMLRAYTAFVAATSPGLTGIRLLTKQNLIPLYEGAGFTLLGPSDVEHGADLWYECAMELEAEEEAEAAEA
notes: full length, 191 residues, codon-optimized synthetic gene; N-terminal GST fusion with C-terminal His6 (GST-CrAANAT-His6, pET60), tags kept
- Km: 247 µM
